Measurements as given in paper PMC5817723, “^99mTc-HYNIC-(tricine/EDDA)-FROP peptide for MCF-7 breast tumor targeting and imaging” (Journal of Biomedical Science, 2018).
Residues, ends and D or L forms follow the SMILES beside them. *: point of attachment. HYNIC = NNc1ccc(C(=O)*)cn1

Experiment: In vitro stability in normal saline at room temperature
Type: physicochemical
Conditions: TLC, n = 3
Procedure: The radiochemical purity was determined by instant thin layer chromatography (ITLC) in different mobile phases such as methyl ethyl ketone (MEK), acetonitrile/water (50/50) and citrate solvent (0.1 M, pH 5.2) using a Lablogic mini scan TLC scanner (Sheffield, UK) and Laura image analysis software. In MEK, free ^99mTcO4^− migrated with the solvent front, while radiolabeled peptide remained at the application point. In the acetonitrile/water system, the colloids remained at the application point, while radiolabeled peptide migrated in front of solvent. The amount of labeled co-ligand was determined by citrate solvent, that free ^99mTcO4 Na and labeled co-ligand migrate in front of solvent while both RHT and labeled peptide (^99mTc-FROP) remind at the origin. A NaI (Tl) gamma detector (Delshid, Tehran, Iran) was used to for measurement of radioactivity.
The stability of ^99mTc-HYNIC-FROP in normal saline was evaluated using ITLC at various times (2, 4, 6 and 24 h) at room temperature. For serum stability, ^99mTc-HYNIC-FROP (30 μL) was incubated with freshly human plasma serum (90 μL) in triplicate at 37 °C. At 1 h of incubation, the plasma proteins were precipitated with a mixture of acetonitrile/ethanol (1:1 v/v) and centrifugation. The supernatant layer was filtered through a 0.22 μm filter and then the fraction was analyzed by RP-HPLC. Partition coefficient of ^99mTc-HYNIC-FROP was determined via method that previously was described.

Question: For `CSCC[C@H](NC(=O)[C@H](CC(C)C)NC(=O)[C@H](CCC(=O)O)NC(=O)[C@H](Cc1ccc(O)cc1)NC(=O)[C@H](CC(=O)O)NC(=O)[C@@H](N)CCC(=O)O)C(=O)N[C@@H](CC(=O)O)C(=O)N[C@@H](CC(C)C)C(=O)N[C@@H](CC(C)C)C(=O)N[C@@H](C)C(=O)N[C@@H](Cc1ccc(O)cc1)C(=O)N[C@@H](CC(C)C)C(=O)N[C@@H](CCCCNC(=O)c1ccc(NN)nc1)C(=O)O` [^99mTc-HYNIC-FROP, metal not drawn] (H-EDYELMDLLAYLK(HYNIC)-OH), which “%RCP in normal saline” value (2 h) is on record?
Answer: 99.5 ± 0.4%

Question: What about the “%RCP in normal saline” value (4 h) of the same compound?
Answer: 99.1 ± 0.9%

Question: What about the “%RCP in normal saline” value (6 h) of the same compound?
Answer: 99 ± 0.8%

Question: And the “%RCP in normal saline” value (24 h)?
Answer: 94.6 ± 2.7%
